# According to article PMC10147923, “Pain-causing stinging nettle toxins target TMEM233 to modulate NaV1.7 function” (Nature Communications, 2023):
# Several values for one entry are separate records, joined by “and”; a condition that tells them apart may be missing. Identical values can stand only once. Like-named read-outs stand apart in the source and are kept apart here.
# B1: TMEM233 (protein)
# chain: MSQYAPSPDFKRALDSSPEANTEDDKTEEDVPMPKNYLWLTIVSCFCPAYPINIVALVFSIMSLNSYNDGDYEGARRLGRNAKWVAIASIIIGLLIIGISCAVHFTRNA
# Target: NaV1.7 (Homo sapiens, UniProt Q15858)
# Assay type: cell-based
# Protocol: To determine recovery from fast inactivation, a 20 ms pulse to 0 mV from a holding potential of −90 mV was used to induce fast inactivation. A subsequent recovery period, ranging from 1 ms to 2216 ms in 50% increments at −90 mV, was followed by a last 20 ms test pulses to 0 mV to determine the time-dependence of recovery from fast inactivation. The proportion of available channels was determined by normalizing peak currents from the last to the first pulse. A two-phase exponential equation was fit to the normalized current, plotted as a function of time, to determine the time constants τ1 and τ2 of recovery from fast inactivation.
# NaV1.7, sequence (Q15858 whole entry): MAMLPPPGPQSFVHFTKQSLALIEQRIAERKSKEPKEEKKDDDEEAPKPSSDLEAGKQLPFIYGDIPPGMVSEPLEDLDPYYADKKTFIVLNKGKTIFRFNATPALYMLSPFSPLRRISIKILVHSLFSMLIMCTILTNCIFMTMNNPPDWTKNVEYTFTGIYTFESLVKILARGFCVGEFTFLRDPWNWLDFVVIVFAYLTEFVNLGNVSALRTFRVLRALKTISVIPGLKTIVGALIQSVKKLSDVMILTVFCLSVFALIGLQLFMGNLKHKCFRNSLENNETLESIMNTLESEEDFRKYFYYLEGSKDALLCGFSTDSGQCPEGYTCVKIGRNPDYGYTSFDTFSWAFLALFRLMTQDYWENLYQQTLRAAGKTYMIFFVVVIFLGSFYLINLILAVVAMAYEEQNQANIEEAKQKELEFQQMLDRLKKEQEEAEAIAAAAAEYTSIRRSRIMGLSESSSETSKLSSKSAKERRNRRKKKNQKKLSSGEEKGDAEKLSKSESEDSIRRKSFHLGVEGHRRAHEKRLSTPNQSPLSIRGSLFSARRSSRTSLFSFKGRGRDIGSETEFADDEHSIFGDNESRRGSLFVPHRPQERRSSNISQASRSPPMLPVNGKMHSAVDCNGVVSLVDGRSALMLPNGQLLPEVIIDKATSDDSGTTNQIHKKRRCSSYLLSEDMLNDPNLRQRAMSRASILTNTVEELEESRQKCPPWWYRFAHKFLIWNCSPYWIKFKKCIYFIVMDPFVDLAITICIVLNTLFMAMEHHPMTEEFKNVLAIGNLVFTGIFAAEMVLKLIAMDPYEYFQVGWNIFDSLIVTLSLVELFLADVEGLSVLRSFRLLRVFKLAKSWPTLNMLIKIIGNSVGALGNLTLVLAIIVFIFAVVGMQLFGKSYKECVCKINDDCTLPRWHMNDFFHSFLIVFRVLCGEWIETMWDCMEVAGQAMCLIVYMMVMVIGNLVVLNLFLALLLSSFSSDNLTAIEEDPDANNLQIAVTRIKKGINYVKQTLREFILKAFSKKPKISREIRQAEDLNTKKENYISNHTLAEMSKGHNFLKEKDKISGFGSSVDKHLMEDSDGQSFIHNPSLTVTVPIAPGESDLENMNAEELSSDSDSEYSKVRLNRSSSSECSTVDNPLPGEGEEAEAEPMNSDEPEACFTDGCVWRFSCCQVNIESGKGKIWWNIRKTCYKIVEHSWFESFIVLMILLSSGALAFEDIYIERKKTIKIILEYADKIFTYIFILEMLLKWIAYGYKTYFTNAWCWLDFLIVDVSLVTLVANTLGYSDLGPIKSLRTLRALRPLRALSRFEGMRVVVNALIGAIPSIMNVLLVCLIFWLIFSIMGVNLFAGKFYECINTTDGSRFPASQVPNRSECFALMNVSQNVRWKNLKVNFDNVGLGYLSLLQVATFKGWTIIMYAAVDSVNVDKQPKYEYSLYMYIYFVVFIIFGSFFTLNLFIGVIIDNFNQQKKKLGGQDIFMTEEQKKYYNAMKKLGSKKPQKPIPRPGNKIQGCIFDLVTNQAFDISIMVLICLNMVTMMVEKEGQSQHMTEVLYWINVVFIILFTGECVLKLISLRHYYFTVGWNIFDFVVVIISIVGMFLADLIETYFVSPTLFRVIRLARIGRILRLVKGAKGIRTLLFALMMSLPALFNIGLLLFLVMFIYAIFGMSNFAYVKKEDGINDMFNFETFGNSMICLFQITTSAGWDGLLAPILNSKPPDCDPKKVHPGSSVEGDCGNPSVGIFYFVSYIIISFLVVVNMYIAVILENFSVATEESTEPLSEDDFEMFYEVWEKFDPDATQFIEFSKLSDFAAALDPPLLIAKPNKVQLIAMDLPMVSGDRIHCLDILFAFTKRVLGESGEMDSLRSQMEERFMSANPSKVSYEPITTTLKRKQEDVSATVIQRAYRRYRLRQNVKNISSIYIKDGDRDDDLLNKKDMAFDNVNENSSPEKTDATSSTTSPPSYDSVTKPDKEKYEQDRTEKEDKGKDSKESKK
# NaV1.7, sequence (Q07699 19-218, further chain): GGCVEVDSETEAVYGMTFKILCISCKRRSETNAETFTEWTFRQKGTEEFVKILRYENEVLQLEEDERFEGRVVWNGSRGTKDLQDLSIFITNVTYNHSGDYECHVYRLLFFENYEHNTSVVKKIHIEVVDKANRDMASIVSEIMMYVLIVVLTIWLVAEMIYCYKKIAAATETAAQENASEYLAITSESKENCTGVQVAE
molecule,measurement,setting,value
B1,"Tau (Fast) RFFI, individual values",,7.679
same,"Tau (Fast) RFFI, mean","Fig 6i, NaV1.7/β1/TMEM233, mean of n = 18, NaV1.7/β1 (Mock) mean 6.695, n = 8",9.635
same,"Tau (Fast) RFFI, individual values","Fig 6i, NaV1.7/β1/TMEM233, single replicates",8.086 and 8.074 and 13.19 and 9.314 and 15.71 and 7.639 and 9.188 and 12.89 and 5.959 and 5.962 and 16.54 and 10.99 and 8.961 and 6.569
same,"Tau (Fast) RFFI, difference between means (Mock - TMEM233) ± SEM","Fig 6i, unpaired t test P = 0.0236, 95% CI -5.450 to -0.4305",-2.940 ± 1.216
same,"Tau Fast, mean","Fig 6m, co-expression with NaV1.7/β1, mean of n = 7, NaV1.7/β1 mean 6.051, n = 16",10.53
same,"Tau Fast, individual values","Fig 6m, co-expression with NaV1.7/β1, single replicates",9.314 and 15.71 and 7.639 and 8.588 and 10.41 and 9.188 and 12.89
same,"Tau Fast, mean diff. NaV1.7/β1/TMEM233 vs. NaV1.7/β1","Fig 6m, Tukey's adjusted P 0.0002, 95% CI 2.091 to 6.876",4.484
same,"Tau Fast, mean diff. vs. NaV1.7/β1/TMEM233 35-109","Fig 6m, Tukey's adjusted P 0.0026, 95% CI 1.415 to 7.059",4.237
